Our source for the median enrichment values is the supplement of paper PMC11502859.
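Also: lentiviral eGFP-IRES-mCherry reporter pool sorted by FACS 96 h post-transduction, gated on mCherry-high cells, Illumina read counts normalized per million, median across four biological replicates.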

For this series, the system named is HEK293T. The series is described as follows: median enrichment of reporter reads in eGFP-reduced (low/intermediate) vs eGFP-high sorted cells (eGFP-extension fusion abundance) (ratio); higher = stronger loss of eGFP-fusion protein abundance (more destabilising extension).
Take KKLRS [CRYGN]: the median enrichment is 0.509.
Take “WKRLGRGSGRGLSPPEAGKESLFSHMIFRVLETHSCRSCRTLEFLGNCPAS [GPR83]”: the median enrichment was determined as 13.9.
The same measure for YGLAKAPIEALCQ [PITHD1]: 1.66.
Turning to YQSVL [RNASE9], the median enrichment was found to be 1.04.
Then SHVGQIKRQLQK [CTSO], with 0.527; and “LTHAHAPLTLKRIHNSLEKHPHVCCRTHSSQLRPIPVTTASPPTPVTTASPPTPVTTASPPTALSPRPMSACPRAQDFLTGMW [SSH3]”, with 3.55.
As to “CGPDCSLHSAHSICSHPPSLTQPPLSGILPQMRSERQ [ABHD6]”, the median enrichment came to 0.625.
On to LRVAFFLL [GTF2A1], for which the median enrichment is 6.78.
Then SYCSMDIK [KDM6A], with 1.22.
Regarding “REGSNGSRELDTVHPNTSPPPGHLEESSARIPRQSSPPAPAVPSCAVLLPHSAPGPCPFIPLKHPLKPLHHFHSQQKVIEHLL [HAUS5]”, the median enrichment stood at 7.
For GLPS [TMEM107], the median enrichment worked out at 0.716.
The same measure for “RSPPHLRPKGRPPPAFLTPALLPQRMWGGGGGPCGPGAQLPGTPVPGQAHLEEESLPPPKYWAALSLPRDHPSLPAMCTIMTN [GPR108]”: 3.35; for “SNIWLRCHWLRPTRSSFGWCRDHMHIIPGINTELFVNIAAPVF [LRRC6]”: 12.4.
Consider CELLPCPSFPPCTT [FEZF2], for which the median enrichment was 0.681.
For the substance ESPLFLPTLQGPHSPYPSVQCTREETLCL [IDH3B], the median enrichment was 13.1.
For “WPLSPHPHLHPRTSLAIGAGPLQTLIPTPTEPLAQVPLVLPHSLAARCPGAHPCRAPKDGEVGGQELLSPTFHAPPLCI [GIT1]”, the median enrichment came to 3.23.
Then HHH [His03], with 0.477; and “SEVRPGPGQGLGPAPCPICSGPQAPPFEEVG [GUCY2D]”, with 1.47; and WLFCKSVLGGPSLRV [OR9A2], with 4.81.
Then YKMIVLTPYTNVLLLALIKLLEG [MAX], with 15.5; and “SEVPDMGPICSSSQLLSLTSHHGGSSHLLWICSL [CIAPIN1]”, with 4.18.
On to LLASIS [TENT2], for which the median enrichment was found to be 5.22.
The same measure for LQNPNLELPMLLSYKHTDSGYS [ATP11C]: 1.23; for “YHPHSSSSPPNRLGSRGLLCKPTGQLWLRAHLLQRVPQPLLNLDFCPNPLPVTRSISLSLLSNGAWSTEASEAIALLAEVKRT [SLC18A3]”: 4.57.
In the case of RLQSVVLVPLSQCRLVFLHILSMA [CDC16], the median enrichment was determined as 7.48.
The same measure for “QHEKDWGGQGGQPAEMRGAGGHSPFSGLDPLRSSPTSCTDNAL [MAP3K9]”: 0.
Then YARWLRNTGEASAFGKEICFGDDLSGNLNLLL [GBA3], with 5.41; and “TQWAPCTPVSGAVRLGYIVNSASTERLALRASSESSSSGTPPKPTPPGTPLSGIPAKRRTLSRSRPPHPQSVAPPTEQPRFGP [PRRT1]”, with 0.999.
Then YKKRLLLGLDR [Degron FEM1B], with 9.09; and YSQERWKQVTSTIA [OR5K1], with 7.21; and “FLGTHSHAHCRSINSNPHFRPKIMRPHLVSTFPRPCSKPNPFLPSGSQNLLSPTATTVLPDFSHSNHSRPAMGNRPSPSVLVK [RNF39]”, with 4.59.
For the substance “RKEKQLLPLSWDRGVGKSAGPHGAWGSQTEAPQNFLQCLRDAWMWPLPLLLTLKDSQTH [LY9]”, the median enrichment came to 4.97.
With “RTDCRSWEPRHAQASAEGAAGGSARLDPWHLIKKFSLMSMVVGQPSSLSQQAHAASVTSSPAVYTGHCGPEWLGPCRSYTTGC [ZFPM1]”, the median enrichment turned out to be 4.58.
On to “CGGLVSELGLCRESLFCVSHPLPDPSLCLYSLNSVEFN [MCM3]”, for which the median enrichment was determined as 13.4.
With “YNIRKKATSMVINGRKAGELDSAVLLTGELWSSAPVYGPCRLVGWQMLA [DPPA4]”, the median enrichment was 10.4.
For the substance “WIPQGTTEAKELEVFSRGTDGLRALMMLPEVCKSFMS [LOR]”, the median enrichment came out at 10.9.
As for LLK [HGF], the median enrichment amounted to 1.66.
The same measure for “SITLILWKSEQAVAVFHSSSCCVQLLPSQPFNKIILKCYPSALPFNGKMKGSDNTGGPNFVPVLCVPYLSVPVYRLCKSLV [RABL3]”: 6.24; for CSLG [MAGEC2]: 0.658; for “LRAGEPHILTAPGLYPGHSRDRLVVEPGGAKKASCGPRTAAVRLPMSQAVCVVTAPLSVHLQQRQRRRLPPGRFSLFIC [ZMYND19]”: 6.85.
For the substance LGSVQGLSH [CST5], the median enrichment worked out at 0.51.
Regarding WPEPLADITAGDEEPGLLLLLPVAPGVEVG [LIMD1], the median enrichment was found to be 12.
The same measure for SDEHG [TMEM242]: 1.05.
Then KRKLKNGCLELVLQLL [REG1B], with 6.65.
Then CSDVPFIYNNVKCNCLVP [TCP1], with 4.71; and LAYLLVFVLKCDLRFNV [TMEM70], with 9.39.
Regarding “ELLGQRLKPQDPCCPSRSFFLESQGKPFRAAPPSGQKLK [ALG1]”, the median enrichment was determined as 3.82.
Then “KSYLSLSNGMKLDNFKKLSRTKGERNTCSFSCN [KLHL4]”, with 5.48; and HHHHHH [His06], with 0.337; and WLQTC [RAB39A], with 5.31.
Then GGGGGGGGG [Gly09], with 3.85.
Turning to SDTLLWSETEDVG [PEX7], the median enrichment was 2.59.
On to CERGLSSSLPAPSSPRPSSLCAW [HOXC10], for which the median enrichment came to 2.77.
Then “ITGTACLGTRFPPAAVTMVASTATPGVQSTAPCPPCVPRSRGSVHHSSPRWRAGLPGGSPVALPWLWGWRDLARMNPPVPGTL [PIGQ]”, with 3.37.
Then WGPDSELEGGEIFKEKRGKWEGCKRGE [SOX2], with 29.7; and YDFQKTLILFLKL [PRDM1], with 8.51; and LTEQLLMSGG [NDUFS5], with 5.57.
Then CAGAFVAISL [MSI2], with 8.28; and “QEMWSLRCLKSTTMPGIEEDYYLKQWALVFGASDMPSILPSWN [G6PC]”, with 10.6; and WTYVLC [OR2L5], with 7.99.
Turning to RGAF [HPX], the median enrichment amounted to 0.586.
Then “CPLSATHVVPSLPSFHLDVPPSPTSAPLLPRLDLKPELPLNLEYATYNMQAAKHPFCTRRLEWNCHVQ [PRR20A]”, with 5.57.
“EVGVRSPYSACCPGCAAQLDSASQHLPPRSFLLFIPIFTPKTSLSLFTPPKPLSHAGPLKPQLPTILREHPLPSLPFPALKPA [GSTM2]”: the median enrichment is 5.73.
Then “SALTHAHAPLTLKRIHNSLEKHPHVCCRTHSSQLRPIPVTTASPPTPVTTASPPTPVTTASPPTALSPRPMSACPRAQDFLTG [SSH3]”, with 2.09.
As for YQGPLDL [OR56A3], the median enrichment amounted to 0.714.
The same measure for RNKKFWVLSS [RGCC]: 1.68.
Then LNQSVFPACAELLI [ZP4], with 3.4; and SGV [PTCHD4], with 0.462; and SVRLDWGGWHCVGGQLSI [ACTL10], with 13.7.
In the case of “LVVAGPGPRPCPGPDSLSHVPSPRLPRTLSLPRPQP [MAFB]”, the median enrichment turned out to be 9.74.
The same measure for SDP [CYGB]: 0.606.
The same measure for YEHLVKTRPSGPTMSAPSRGRDMACHSS [ITGB2]: 0.9.
